Source: the nanobody polyreactivity screen of Harvey et al. (2022)

experiment: yeast display, Sf9 membrane polyspecificity reagent, FACS + sequencing; frameworks hold sequencing errors
Outline: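 Galactose-induced (36–48 hours) yeast carrying a synthetic nanobody display library were exposed to 10% biotinylated, detergent-solubilized Sf9 membrane reagent at 4 °C for 1 hour. FACS followed streptavidin microbead enrichment, using low and high (top ~1%) gates for expression (anti-HA) and reagent binding (streptavidin). Colony PCR, MiSeq 2 × 250 sequencing and CDR-length filtering followed. Labels for polyreactivity reflect the gate of origin.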

Sequence | polyreactivity (PSR sort gate)
QVQLVESGGGLVQAGGSLRLSCAASGRTFTLYAMGWYRQAPGKERELVASITSGTRTYYADSVKGRFTISRDNAKNTVYLQMNSLKPEDTAVYYCAKEGYLRTLHRLYDYWGQGTQVTVSS | low polyreactivity
QVQLVESGGGLVQAGGSLRLSCAASGRTFTPYAMGWYRQAPGKERELVAAIDTSGGSTYADSVKGRFTISRDNAKNTVYLQMNSLKPEDTAVYYCAATRHSRVRGGDYWGQGTQVTVSS | low polyreactivity
QVQLVESGGGLVQAGGSLRLSCAASGRTFTPYAMGWYRQAPGKERELVAAISIGGPTNYADSVKGRFTISRDNAKNTVYLQMNSLKPEDTADYYCAADSYYLGRDGFGFYAYTYDYWGQGTEVTVSS | low polyreactivity
QVQLVESGGGLVQAGGSLRLSCAASGRTFTRNAMGWYRQAPGKDRELVAAISYSGGSTYYADSVKGRFTISRDNAKNTVYLQMNSLKPEDTAVYYCNAATSRRSIRYDYWGQGTQVTVSS | high polyreactivity
QVQLVESGGGLVQAGGSLRLSCAASGRTFTRYAMGWYRQAPGKERELVAAISGGGGSTYYADSVKGRFTISRDNAKNTVYLQMNSLKPEDTAVYYCAAGPWFYYWGQGTQVTVSS | low polyreactivity
QVQLVESGGGLVQAGGSLRLSCAASGRTFTRYAMGWYRQAPGKERELVAAISRGGSTYYADSVKGRFTISRDNAKNTVYLQMNSPKPEDTAVYYCAARYGTYTAGNYWGQGTQVTVSS | high polyreactivity
QVQLVESGGGLVQAGGSLRLSCAASGRTFTRYAMGWYRQAPGKERELVATITRGGSTNYADSVKGRFTISRDNAKNTVYLQMNSLKPEDTAVYYCAAGYFIRTRSRYRYDYWGQCTQVTVSS | high polyreactivity
QVQLVESGGGLVQAGGSLRLSCAASGRTFTRYAMGWYRQPPGKESELVAAISRGGNTNYADSVKGRFTISRDNAKNTVYLQMNSLKPEDTAVYYCARVYGGYSVPSAYGSWGQGTQVTVSS | high polyreactivity
QVQLVESGGGLVQAGGSLRLSCAASGRTFTRYAMGWYRQSPGKERELVAAISTSGDSTYYADSVKGRFTISRDNAKNTVYLQMNSLKPVDTAVYYCNTYWTSEYDYWGQGTQVTVSW | low polyreactivity
QVQLVESGGGLVQAGGSLRLSCAASGRTFTSNAMGWYRQAPGKERELVAAITQSGGSTYYADSVKGRFTISRDNAKNTVYLQMNSLKPEDTAVYYCNAETTGRTEYNYWGQGTQVTVSS | low polyreactivity
QVQLVESGGGLVQAGGSLRLSCAASGRTFTSNGMGWYRQAPGKERELVAAITSGTSTYYADSVKGRFTISRDNAKNPVYLQMNSLKPEDTAVYYCNKLVPRGSSYSTVIRGGGYWGQGTQVTVSS | high polyreactivity
QVQLVESGGGLVQAGGSLRLSCAASGRTFTSYAMGCYRQEPGKERELVAAITRGGRTNYADSVKGRFTISRDNAKNTVYLQMNSLKPEDTAVYYCNTEIRLSKYDYWGQGTQVTVSS | low polyreactivity
QVQLVESGGGLVQAGGSLRLSCAASGRTFTTYTMGWYRQAPGKERELVASINYRGGRTYYADSVKGRFTISRDNAKNTVYLQMNSLKPEDTAVYYCAYYPYGYDYWGQGTQVTVSS | high polyreactivity
QVQLVESGGGLVQAGGSLRLSCAASGRTFTVYPMGWYRQAPVKEREFVAAITERGGSTYYADSVKGRFTISRDNAKNTVYLQMNSLKPEDTAVYYCAAVYYWRPGWYVRFDYWGQGTQVTVSS | low polyreactivity
QVQLVESGGGLVQAGGSLRLSCAASGRTFTWNVMGWYIQAPGKERELVAAISSSGGDTYYADSVKGRFTISRDNAKNTVYLHMNSLKPEDTAVYYCAAGQVYSGYEYWGQGTQVTVSS | low polyreactivity
QVQLVESGGGLVQAGGSLRLSCAASGRTFTWNVMGWYRQAPGKERELVAAITTDDRTYADSEKGRFTISRDNAKNTVYLQMNSLKQEDTAVYYCATVVAWTSRPVGEDYWGQGTQVTVSS | low polyreactivity
QVQLVESGGGLVQAGGSLRLSCAASGRTFTYNAMGWYRQAPGKERELVAAITYRGGSTYYADSVKGRFTISRDNAKNTVYLQMNSLKPEDTAVYYCAARVSYYRYNTPHYYYWGQGTQVTVSS | high polyreactivity
QVQLVESGGGLVQAGGSLRLSCAASGRTFTYYAMGWYRQAPGKERELVAAISWSGDDTYYADSVKGRFTISRDNAKNTVYLQMHSLKPEDTAVYYCAAEGGGVYSDYRENTGEDYWGQGTQVTVSS | low polyreactivity
QVQLVESGGGLVQAGGSLRLSCAASGRTFVAKTMGWYRQAPGKERELVAAISSSGGSTYYADSVKGRFTISRDNAKNTVYLQMNSLKPEDTAVYYCAKTHSGWWRYGYWGQGTQVTVSS | high polyreactivity
QVQLVESGGGLVQAGGSLRLSCAASGRTFVANAMGWYRQAPGKERELVAAITSTGSTYYADSVKGRFTISRDNAKNTVYLQMNSLKPEDTAVYYCATYYWLGLSLYDYWGQGSQVTVSS | low polyreactivity
QVQLVESGGGLVQAGGSLRLSCAASGRTFVDYDMGWYRQAPGKERELVADINSGGSTYYADSVKGRFTISRDNAKNTVYLQMNRLKPEDTAVYYCAADDGWGYISSYDYEYWGQGTQVTVSS | high polyreactivity
QVQLVESGGGLVQAGGSLRLSCAASGRTFVGNTMGWYRQAPGKERELVAAISTGDGSTTYADSVKGRFTISRDNAKNTVYLQMNSLKPEDTAVYYCNVKYRASYRTDFEYWGLGTQVTVSS | low polyreactivity
QVQLVESGGGLVQAGGSLRLSCAASGRTFVGYTMGWYRQAPGKERELVAAIDLSDGSTSYADSVKGRFTISRDNAKNSVYLQMNSLKPEDTAVYYCAKTWANVYAGAHDYWGQGTQVTVSS | low polyreactivity
QVQLVESGGGLVQAGGSLRLSCAASGRTFVGYTMGWYRQAPGKERELVAAIDLSDGSTSYADSVKGRFTISRDNAKNTVYLQMNSLKPEDTAVYYCAKSWANVYAGAHDYWGQGTQVTVSS | low polyreactivity
QVQLVESGGGLVQAGGSLRLSCAASGRTFVNNAMGWYRQAPGKERELVAAITRSGGRTYYADSVKGRFTISRDNAKNTVYLQMNSLKPVDTAVYYCATANVRLRHDDYWGQGTQVTVSS | high polyreactivity
QVQLVESGGGLVQAGGSLRLSCAASGRTFVNYALGWYRQAPWKERELVAGISSDGSTYYADSEKGRFTISRDNAKNTVYLQMNSLKPEDTAVYYCATEIRITGLYRYDYWGQGTQVTVSS | low polyreactivity
QVQLVESGGGLVQAGGSLRLSCAASGRTFVPYAMGWYRQAPGKEREFVAVITWGGGSTYYADSVKGRFTISRDNAKNTVYLQMNSLKPEDTAVYYCAARNRRATGLGSRYGYWGQGTQVTVSS | high polyreactivity
QVQLVESGGGLVQAGGSLRLSCAASGRTFVPYAMGWYRQAPGKERELVATNNRSGGTTYYADSVKGRFTISRDNAKNTVYLQMNSLKPEDTAVYYCNKSPYYTVWSTRGNQFSRFYYWGQGTQVTVSS | high polyreactivity
QVQLVESGGGLVQAGGSLRLSCAASGRTFVPYAMGWYRQAPGKEREMVAAISQSGGRTYYTDSVKGRFTISRDNAKNTVYLLMNSLKPEDTAVYYCAARGPYRPPHGDAYYTYVYWGQGTQVTVSS | high polyreactivity
QVQLVESGGGLVQAGGSLRLSCAASGRTFVPYDMGLYRQAPGKERELVAAISSGDSTNYTDSVKGRFTISRDNAKNTVYLQMNSLKPEDTAVYYCAADLTYTMDHWGQGTQVTVSS | low polyreactivity
